Results published in US20200199533A1 (KING ABDULLAH UNIVERSITY OF SCIENCE AND TECHNOLOGY, published 2020).
One block for each molecule: values may come before it.

T1: PSGL-1, native glycoprotein from human HSPCs (KG1a, CD34^pos-BM) (human, UniProt Q14242 42-412, native glycosylation and tyrosine sulfation)
T1 construct: mature; also called P-selectin glycoprotein ligand-1
T1 sequence (looked up): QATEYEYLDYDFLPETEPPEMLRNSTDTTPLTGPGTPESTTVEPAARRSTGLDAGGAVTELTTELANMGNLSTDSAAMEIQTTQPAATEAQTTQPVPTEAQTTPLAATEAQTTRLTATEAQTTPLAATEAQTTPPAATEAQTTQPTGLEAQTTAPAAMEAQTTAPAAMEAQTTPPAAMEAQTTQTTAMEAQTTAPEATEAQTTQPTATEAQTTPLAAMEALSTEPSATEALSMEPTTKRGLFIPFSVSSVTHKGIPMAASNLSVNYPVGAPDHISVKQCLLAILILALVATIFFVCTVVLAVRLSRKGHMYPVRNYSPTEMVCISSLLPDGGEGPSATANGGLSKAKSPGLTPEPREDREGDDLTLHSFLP

B1: CD34, native glycoprotein from human HSPCs (KG1a, CD34^pos-BM, CD34^pos-UCB, CD34^pos-AML) (ligand, UniProt P28906 32-385, looked up)
chain: SLDNNGTATPELPTQGTFSNVSTNVSYQETTTPSTLGSTSLHPVSQHGNEATTNITETTVKFTSTSVITSVYGNTNSSVQSQTSVISTVFTTPANVSTPETTLKPSLSPGNVSDLSTTSTSLATSPTKPYTSSSPILSDIKAEIKCSGIREVKLTQGICLEQNKTSSCAEFKKDRGEGLARVLCGEEQADADAGAQVCSLLLAQSEVRPQCLLLVLANRTEISSKLQLMKKHQSDLKKLGILDFTEQDVASHQSYSQKTLIALVTSGALLAVLGITGYFLMNRRSWSPTGERLGEDPYYTENGGGQGYSSGPGTSPEAQGKASVNRGAQENGTGQATSRNGHSARQHVVADTEL
modifications: native glycosylation (about 120-130 kDa form); sialylated O-glycans and tyrosine sulfation are shown to matter for selectin binding
notes: mature; also called E-selL CD34
B2: Recombinant P-selectin human immunoglobulin chimeric protein (Fc fusion)
chain: WTYHYSTKAYSWNISRKYCQNRYTDLVAIQNKNEIDYLNKVLPYYSSYYWIGIRKNNKTWTWVGTKKALTNEAENWADNEPNNKRNNEDCVEIYIKSPSAPGKWNDEHCLKKKHALCYTASCQDMSCSKQGECLETIGNYTCSCYPGFYGPECEYVRECGELELPQHVLMNCSHPLGNFSFNSQCSFHCTDGYQVNGPSKLECLASGIWTNKPPQCLAAQCPPLKIPERGNMTCLHSAKAFQHQSSCSFSCEEGFALVGPEVVQCTASGVWTAPAPVCKAVQCQHLEAPSEGTMDCVHPLTAFAYGSSCKFECQPGYRVRGLDMLRCIDSGHWSAPLPTCEAISCEPLESPVHGSMDCSPSLRAFQYDTNCSFRCAEGFMLRGADIVRCDNLGQWTAPAPVCQALQCQDLPVPNEARVNCSHPFGAFRYQSVCSFTCNEGLLLVGASVLQCLATGNWNSVPPECQAIPCTPLLSPQNGTMTCVQPLGSSSYKSTCQFICDEGYSLSGPERLDCTRSGRWTDSPPMCEAIKCPELFAPEQGSLDCSDTRGEFNVGSTCHFSCDNGFKLEGPNNVECTTSGRWSATPPTCKGIASLPTPGVQCPALTTPGQGTMYCRHHPGTFGFNTTCYFGCNAGFTLIGDSTLSCRPSGQWTAVTPACRAVKCSELHVNKPIAMNCSNLWGNFSYGSICSFHCLEGQLLNGSAQTACQENGHWSTTVPTCQAGPLTIQEA

Legend:
[1] = molecular target: CD34, native glycoprotein from human HSPCs (KG1a, CD34^pos-BM, CD34^pos-UCB, CD34^pos-AML) (human) (UniProt P28906); assay: Stamper-Woodruff assay, CHO-E cells on CD34 immunoprecipitate from KG1a
[2] = molecular target: CD34, native glycoprotein from human HSPCs (KG1a, CD34^pos-BM, CD34^pos-UCB, CD34^pos-AML) (human) (UniProt P28906); assay: Stamper-Woodruff assay, CHO-E cells on CD34 immunoprecipitate from CD34^pos-BM
[3] = molecular target: CD34, PNGaseF-treated (human) (UniProt P28906); assay: SPR; CD34 captured on 4H11 from PNGaseF-treated KG1a lysate; koff-apparent similar to the control
[4] = molecular target: CD44 (HCELL), native glycoprotein from human HSPCs (KG1a, CD34^pos fraction) (human) (UniProt P16070); assay: SPR, capture of CD44 from KG1a lysate on immobilized Hermes-3, before normalization
[5] = molecular target: CD44 (HCELL), native glycoprotein from human HSPCs (KG1a, CD34^pos fraction) (human) (UniProt P16070); assay: SPR, capture of CD44 from KG1a lysate on immobilized Hermes-3, estimated from Equation 1
[6] = molecular target: CD44 (HCELL), native glycoprotein from human HSPCs (KG1a, CD34^pos fraction) (human) (UniProt P16070); assay: SPR, dissociation of captured CD44 from immobilized Hermes-3 during the wash after the lysate injection, s^-1 as in paragraph 58; fits the 8.6-fold ratio of paragraph 58
[7] = molecular target: CD34, native glycoprotein from human HSPCs (KG1a, CD34^pos-BM, CD34^pos-UCB, CD34^pos-AML) (human) (UniProt P28906); assay: Stamper-Woodruff assay, CHO-P cells on CD34 immunoprecipitate from KG1a
[8] = molecular target: CD34, native glycoprotein from human HSPCs (KG1a, CD34^pos-BM, CD34^pos-UCB, CD34^pos-AML) (human) (UniProt P28906); assay: Stamper-Woodruff assay, CHO-P cells on CD34 immunoprecipitate from CD34^pos-BM
[9] = molecular target: T1, PSGL-1, native glycoprotein from human …; assay: CD34 immunoprecipitation, Western blot for PSGL-1 (KPL-1-mAb)
Source text: FIG. 7A is an autoradiograph of Western blots of P-Ig immunoprecipitates from KG1a and CD34^pos-BM lysates probing for CD34 (QBend-10 and EP373Y mAb) or PSGL-1 using KPL-1-mAb. Note that CD34 immunoprecipitates were free from any PSGL-1 contamination. (n=3 independent experiment). FIG. 7B is an autoradiograph of Western blots of CD34 and PSGL-1 immunoprecipitates probed with P-Ig (n=3). FIG. 7C is an autoradiograph of Western blots of E-Ig immunoprecipitates of E-sels from KG1 lysate that were eluted with 30 mM EDTA. The eluate was then immunoprecipitated with CD34-mAbs (4H11 and 581) prior to Western blot analysis with CD34, E-Ig, and P-Ig (n=2 independent experiments). FIG. 7D is a bar graph of Bound cells/field for adherent CHO-P cells. CD34 immunoprecipitates were prepared from CD34^pos-BM and KG1a lysates and spotted on glass slides to test for CHO-P binding using a Stamper-Woodruff assay. n=2 independent experiments. FIG. 7E is a bar graph of # of rolling cells per field showing Adhesion bar graph representing results obtained for the blot-rolling assay using CHO-P cell rolling at 0.25 dyne/cm² (rolling cells/field) over Western blots of immunoprecipitated CD34, CD44, CD43, or PSGL-1 from KG1a cell lysates. EDTA was used as a buffer (gray bars) or CHO-M cells (white bars). […] The resulting proteins were analyzed by Western blot for P-Ig binding.

[10] = molecular target: B1; assay: SPR; CD34 captured on 563-mAb against PSGL-1 captured on KPL-1-mAb
[11] = molecular target: B1; assay: SPR; CD34 captured from KG1a lysate on 563-mAb; apparent rate constant
[12] = molecular target: B1; assay: SPR; CD34 captured from KG1a lysate on 563-mAb; apparent association rate
[13] = molecular target: T1, PSGL-1, native glycoprotein from human …; assay: SPR; PSGL-1 captured from KG1a lysate on KPL-1-mAb; apparent association rate
[14] = molecular target: B1; assay: SPR; CD34 captured from KG1a lysate on 563-mAb, P-Ig injected, 2 mM CaCl2, 25 C; steady-state model; mean
[15] = molecular target: T1, PSGL-1, native glycoprotein from human …; assay: SPR; PSGL-1 captured from KG1a lysate on KPL-1-mAb, P-Ig injected, 2 mM CaCl2, 25 C; steady-state model; mean
[16] = molecular target: T1, PSGL-1, native glycoprotein from human …; assay: SPR; PSGL-1 captured from KG1a lysate on KPL-1-mAb; apparent rate constant; exponent printed as 10^4, read as 10^-4
[17] = molecular target: B1; assay: SPR, steady-state fit of consecutive P-Ig injections (labels 5.6 to 1000 under the steps) in CaCl2 over CD34 captured from KG1a lysate on 563-mAb, 150 mM NaCl; the run shown; no rise in the P-Ig/EDTA step
[18] = molecular target: T1, PSGL-1, native glycoprotein from human …; assay: SPR, steady-state fit of consecutive P-Ig injections (labels 5.6 to 1000 under the steps) in CaCl2 over PSGL-1 captured from KG1a lysate on KPL-1-mAb, 150 mM NaCl; the run shown; no rise in the P-Ig/EDTA step

Sequence of CD44 (HCELL), native glycoprotein from human HSPCs (KG1a, CD34^pos fraction) (human) (P16070 21-742): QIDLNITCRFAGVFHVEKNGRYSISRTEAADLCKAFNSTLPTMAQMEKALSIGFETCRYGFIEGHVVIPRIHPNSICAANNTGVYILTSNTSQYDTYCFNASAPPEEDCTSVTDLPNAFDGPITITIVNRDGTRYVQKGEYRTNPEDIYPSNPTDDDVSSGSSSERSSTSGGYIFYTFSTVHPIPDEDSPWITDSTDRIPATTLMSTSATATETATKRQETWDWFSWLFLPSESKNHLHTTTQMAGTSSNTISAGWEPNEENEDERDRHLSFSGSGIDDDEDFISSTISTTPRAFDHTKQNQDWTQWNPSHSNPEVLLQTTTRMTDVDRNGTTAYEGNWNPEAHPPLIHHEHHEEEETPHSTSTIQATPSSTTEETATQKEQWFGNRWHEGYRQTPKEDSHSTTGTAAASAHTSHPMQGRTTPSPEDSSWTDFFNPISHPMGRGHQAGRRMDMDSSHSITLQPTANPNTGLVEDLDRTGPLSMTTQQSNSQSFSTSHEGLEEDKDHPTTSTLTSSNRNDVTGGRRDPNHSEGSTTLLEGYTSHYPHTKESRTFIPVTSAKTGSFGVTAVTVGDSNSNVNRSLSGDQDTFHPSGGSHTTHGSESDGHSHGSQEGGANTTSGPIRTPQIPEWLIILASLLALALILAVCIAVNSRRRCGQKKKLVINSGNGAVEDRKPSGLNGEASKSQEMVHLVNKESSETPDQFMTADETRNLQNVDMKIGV

bound cells (bound cells/field) [1]: 26 | bound cells (bound cells/field) [2]: 14
Molecule: E-selectin expressed on CHO-E cells (receptor)

fold reduction in RUmax against the control lysate [3]: 1.4 fold
Molecule: recombinant E-selectin human immunoglobulin chimeric protein (Fc fusion)

RUmax at the end of the lysate injection [4]: 559 RU | ligand-capturing efficiency [5]: 20.2% | koff [6]: 5e-05 s⁻¹
Molecule: CD44-mAb Hermes-3 (antibody)

bound cells per field (bound cells per field) [7]: 41 | bound cells per field (bound cells per field) [8]: 8
Molecule: P-selectin expressed on CHO-P cells (receptor)

Molecule: B1
binding result [9]: no binding

Molecule: B2
fold weaker KD than P-Ig to PSGL-1 [10]: ~1.7 fold | koff [11]: 0.0003 s⁻¹ | kon [12]: 452 M⁻¹ s⁻¹ | kon [13]: 474 M⁻¹ s⁻¹ | Kd [14]: 621 nM | Kd [15]: 372 nM | koff [16]: 0.0002 s⁻¹ | Kd [17]: ~622 nM | Kd [18]: ~373 nM
